# According to patent US20260104424A1, “METHODS, SYSTEMS AND KITS FOR IDENTIFYING BIOACTIVE COMPOUNDS AND THERAPEUTIC METHODS AND COMPOSITIONS” (priority 2022, published 2026):
# “Also recorded” adds a separate entry of the source.
# Key:
# EGFR = molecular target: T1, EGFR (Homo sapiens, UniProt P00533); assay: Single-round M13 phage library screening against EGFR (Ig-EGFR beads, HEK293T cells overexpressing EGFR); type: binding; details: for identification as hit in screen against Ig-EGFR: AT, MV and secretome libraries, versus Isotype Ig, triplicate; for identification as hit in secretome library screen: beads coated with Ig-EGFR and HEK293T cells overexpressing EGFR
# T1 construct: representing the extracellular domain of the target receptor fuse to the Fc region of immunoglobulin G; purchased R&D Systems 344-ER
# Description: For the phage immunoprecipitation-based ligand discovery, 1 μg of EGFR-Fc (R&D Systems Cat No. 344-ER) and Etanercept (Mippipore Sigma Cat No. 185243-69-0) chimera proteins, representing the extracellular domain of the target receptor fuse to the Fc region of immunoglobulin G, was incubated with the pre-blocked phage library overnight at 4° C. The following day, 20 μL of protein G beads (ThermoFisher Cat No. 10009D) were added to the phage-chimera mixture and rotated for 4 hours at 4° C. to immunocapture (IP) all chimeras. The beads were then washed three times with PBS containing 0.01% NP-40 and stored in −80° C. before sequencing.
# MrgprX4 = molecular target: T2, MrgprX4 (Homo sapiens, UniProt Q96LA9); assay: MrgprX4 calcium signaling assay; type: cell-based; parameters: activation of MrgprX4 (agonist activity): dose or concentration left out as unconfirmed
# T2 construct: GFP; expressed in transfected cells; host or cells: HEK293-MrgprX4-GFP
# Description: The HEK293-MrgprX4-GFP and HEK293 cell lines were dissociated with 0.25% Trypsin (Gibco, Cat No. 25200-056) and collected after 1-2 minutes incubation. The harvested cells were then seeded at a density of 2.5E+04 cells/well in a 96-well half-area flat clear bottom black plate (Greiner Bio-One, Cat No. 675090) that was pre-treated with 0.1 mg/ml poly-D-lysine. The following day, cells were stained with FLIPR Calcium 5 dye (Molecular Devices, Cat No. R8186) in a loading buffer composed of Hanks' balanced salt solution (HBSS) with 20 mM HEPES, adjusted to pH 7.4. After a 30-minute incubation period at 37° C., TFPI (Acro Biosystems Cat No. TFI-H5226) was introduced, and the cells were incubated for an additional hour at 37° C. Subsequently, UDCA or the buffer control were automatically dispensed into the wells, which were immediately imaged using the Flexstation 3 system (Molecular Devices).
# CXCR2 = molecular target: T3, CXCR2 (Homo sapiens, UniProt P25025); assay: M13 phage binding and screening against HEK293T cells overexpressing CXCR2; details: negative control protein on M13 phage
# T3 sequence (P25025 1-360): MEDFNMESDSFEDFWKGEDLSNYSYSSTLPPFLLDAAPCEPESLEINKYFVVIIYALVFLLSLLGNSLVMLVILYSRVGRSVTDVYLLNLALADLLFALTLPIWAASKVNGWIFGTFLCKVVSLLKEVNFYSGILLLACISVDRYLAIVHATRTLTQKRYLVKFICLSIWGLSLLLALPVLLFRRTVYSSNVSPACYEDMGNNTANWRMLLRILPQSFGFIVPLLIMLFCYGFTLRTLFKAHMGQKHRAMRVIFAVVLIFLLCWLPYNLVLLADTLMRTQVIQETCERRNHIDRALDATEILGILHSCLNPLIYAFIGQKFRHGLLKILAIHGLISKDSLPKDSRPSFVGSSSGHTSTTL
# T2 sequence (Q96LA9 whole entry): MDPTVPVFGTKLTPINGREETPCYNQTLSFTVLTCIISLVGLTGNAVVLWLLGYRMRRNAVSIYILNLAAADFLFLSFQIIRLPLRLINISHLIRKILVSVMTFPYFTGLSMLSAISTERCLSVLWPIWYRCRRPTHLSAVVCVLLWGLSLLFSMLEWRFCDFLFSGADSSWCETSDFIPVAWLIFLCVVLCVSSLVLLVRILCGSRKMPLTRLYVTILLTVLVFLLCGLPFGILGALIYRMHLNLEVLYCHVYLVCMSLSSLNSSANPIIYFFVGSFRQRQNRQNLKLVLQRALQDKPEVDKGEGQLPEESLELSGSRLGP
substance,measurement,setting,value
transforming growth factor-A [TGFA],identification as hit in screen against Ig-EGFR,EGFR,rediscovered
same,identification as hit in screen against Ig-EGFR,EGFR; listed as TGFa,identified
same,identification as hit in secretome library screen,EGFR,robustly identified
"osteoprotegerin [OPG, reference compound]",inhibitory activity on MrgprX4,"MrgprX4; negative control protein, 1 uM (n=4)",no obvious inhibitory activity
betacellulin [BTC],identification as hit in screen against Ig-EGFR,EGFR,rediscovered; also recorded: identified
same,identification as hit in secretome library screen,EGFR,robustly identified
tissue factor pathway inhibitor [TFPI],activation of MrgprX4 (agonist activity),MrgprX4,does not activate
same,inhibition of activation by UDCA,"MrgprX4; UDCA (EC80), TFPI at 1 and 0.3 uM, n=7",inhibiting the activation of UDCA
same,concentrations down to which UDCA-induced activation of MrgprX4 was effectively inhibited,MrgprX4; calcium-signaling assay,0.3 µM
same,concentration at which MrgprX4 activation was inhibited,MrgprX4; in the presence of the MrgprX4 activator UDCA,300 nM
heparin binding EGF-like growth factor [HBEGF],identification as hit in screen against Ig-EGFR,EGFR,rediscovered
same,identification as hit in screen against Ig-EGFR,EGFR; listed as HB-EGF,identified
same,identification as hit in secretome library screen,EGFR,robustly identified
$-Lactoglobulin: negative control protein displayed on phage in the CXCR2 binding test,non-specific binding to HEK293T-CXCR2 cells,CXCR2,low non-specific binding
